Measurements from the supplement of paper PMC6757056.
± gives the standard deviation of the averaged measurements.

B1: library; a variant is named by its letters at N, in order (parent)
chain: GCUGUCACCGGUGUAUUACCCUAGUGGUCGACCGGUCUGAUGAGUCUNNNNNNAGACGAAACAGC

Tests used:
[1] = variants of: B1; experiment: FACS-Seq fitted mean relative fluorescence mCherry/BFP without ligand (log10 relative fluorescence); ligand: hypoxanthine (xanthine aptamer); higher = higher reporter protein expression; settings: HEK293T, ligand present: no
Method in brief: (§1)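 An mCherry reporter containing the ribozyme switch and an EF1α-BFP marker were introduced by lentivirus into HEK293T libraries. Cells were enriched, incubated 48 h with or without ligand, sorted into 6 bins by mCherry/BFP, and bin genomic DNA was PCR-amplified, barcoded and sequenced on MiSeq. Fluorescence represents the normalized fitted normal mean of the bin counts. Fitting was done on log10(mCherry/BFP), scaling to five spiked-in control ribozymes.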

[2] = variants of: B1; experiment: normalized RNA/DNA level with ligand (relative to sTRSVctl = 100) (log10 (% of sTRSVctl)); ligand: hypoxanthine (xanthine aptamer); higher = less ribozyme self-cleavage, higher mRNA level; settings: ligand concentration (+) RNA-Seq: 5 mM, HEK293T, reporter: mCherry (pCS4076), ligand present: yes
Method in brief: (§2)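 Library plasmids carrying ribozyme switches linked to mCherry, or to eGFP in some ligand experiments, were transfected into HEK293T at 4 µg per 6-well well, with any ligand added 1 h earlier. Seventy-two hours on, total RNA was extracted with EDTA and reverse-transcribed, amplified, barcoded and sequenced. RNA level was RNA over DNA reads normalized to a spiked-in non-cleaving sequence or to the top sequences, then scaled and log-transformed. The top set was 25 sequences, the transform was ×100 and log10, and sequences needed ≥100 DNA reads.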

[3] = variants of: B1; experiment: normalized RNA/DNA level without ligand (relative to sTRSVctl = 100) (log10 (% of sTRSVctl)); ligand: hypoxanthine (xanthine aptamer); higher = less ribozyme self-cleavage, higher mRNA level; settings: HEK293T, reporter: mCherry (pCS4076), ligand present: no
Method in brief: as §2

[4] = variants of: B1; experiment: FACS-Seq fitted mean relative fluorescence mCherry/BFP with ligand (log10 relative fluorescence); ligand: hypoxanthine (xanthine aptamer); ligand concentration (+) FACS-Seq: 5 mM; higher = higher reporter protein expression; settings: HEK293T, ligand present: yes
Method in brief: as §1

| Variant | FACS-Seq fitted mean (log10) [1] | normalized RNA/DNA level with ligand (log10) [2] | normalized RNA/DNA level without ligand (log10) [3] | FACS-Seq fitted mean (log10) [4] |
| --- | --- | --- | --- | --- |
| CUAAGU | 0.447 ± 0.0085 | 1.93 ± 0.023 | 1.86 ± 0.031 | 0.262 ± 0.12 |
| AUAAGU | 0.122 ± 0.094 | 1.852 ± 0.0077 | 1.629 ± 0.011 | 0.279 ± 0.058 |
| UUAAUA | 0.528 ± 0.021 | 1.9466 ± 0.0017 | 1.79 ± 0.029 | 0.658 ± 0.014 |
| AUAAUA | -0.24 ± 0.021 | 1.886 ± 0.012 | 1.82 ± 0.0094 | -0.134 ± 0.044 |
| CUAAUC | 0.365 ± 0.027 | 1.94 ± 0.037 | 1.9 ± 0.043 | 0.43119 ± 0.00031 |
| GUAAUC | 0.801 ± 0.026 | 1.95 ± 0.046 | 1.756 ± 0.012 | 0.81 ± 0.068 |
| CUAAUG | 0.65 ± 0.052 | 1.922 ± 0.018 | 1.79 ± 0.068 | 0.577 ± 0.044 |
| GUAAUG | 0.27 ± 0.022 | 1.853 ± 0.0059 | 1.52 ± 0.028 | 0.529 ± 0.0072 |
| AUAAUG | 0.211 ± 0.039 | 1.838 ± 0.013 | 1.51 ± 0.064 | 0.551 ± 0.036 |
| GUAAUU | 0.444 ± 0.086 | 1.91 ± 0.047 | 1.9 ± 0.025 | 0.229 ± 0.036 |
| AUAAUU | 0.751 ± 0.0089 | 1.92 ± 0.046 | 1.83 ± 0.061 | 0.619 ± 0.013 |
| CUACAA | 0.07 ± 0.013 | 1.9 ± 0.013 | 1.79 ± 0.044 | -0.0643 ± 0.025 |
| GUACAA | -0.152 ± 0.025 | 1.91 ± 0.035 | 1.76 ± 0.064 | 0.27 ± 0.051 |
| AUACAA | 0.364 ± 0.062 | 1.9 ± 0.037 | 1.76 ± 0.024 | 0.532 ± 0.013 |
| UUACAC | 0.362 ± 0.025 | 1.92 ± 0.079 | 1.81 ± 0.025 | 0.444 ± 0.051 |
| AUACAC | 0.399 ± 0.093 | 1.915 ± 0.019 | 1.762 ± 0.0072 | 0.456 ± 0.1 |
| GUACAG | 0.688 ± 0.084 | 1.87 ± 0.071 | 1.45 ± 0.07 | 0.818 ± 0.08 |
| AUACAG | 0.1 ± 0.018 | 1.814 ± 0.017 | 1.45 ± 0.039 | 0.561 ± 0.031 |
| UUACAU | 0.352 ± 0.018 | 1.93 ± 0.051 | 1.87 ± 0.026 | 0.453 ± 0.11 |
| GUACCA | 0.512 ± 0.037 | 1.944 ± 0.012 | 1.867 ± 0.006 | 0.532 ± 0.03 |
| AUACCC | 0.513 ± 0.014 | 1.94 ± 0.043 | 1.89 ± 0.027 | 0.292 ± 0.028 |
| GUACCG | 0.26 ± 0.029 | 1.903 ± 0.0046 | 1.624 ± 0.0025 | 0.511 ± 0.015 |
| UUACCG | -0.405 ± 0.057 | 1.899 ± 0.011 | 1.75 ± 0.052 | -0.0713 ± 0.036 |
| AUACCG | 0.00532 ± 0.0097 | 1.84 ± 0.095 | 1.47 ± 0.035 | 0.282 ± 0.082 |

| Variant | FACS-Seq fitted mean (log10) [1] | normalized RNA/DNA level with ligand (log10) [2] | normalized RNA/DNA level without ligand (log10) [3] | FACS-Seq fitted mean (log10) [4] |
| --- | --- | --- | --- | --- |
| AUACGC | 0.365 ± 0.04 | 1.91 ± 0.056 | 1.72 ± 0.042 | 0.5194 ± 0.0036 |
| GUACGG | -0.0891 ± 0.011 | 1.893 ± 0.016 | 1.4 ± 0.048 | 0.337 ± 0.062 |
| AUACGG | -0.0504 ± 0.059 | 1.785 ± 0.012 | 1.27 ± 0.082 | 0.547 ± 0.084 |
| GUACGU | 0.418 ± 0.03 | 1.8918 ± 0.0012 | 1.78 ± 0.067 | 0.626 ± 0.09 |
| UUACGU | 0.582 ± 0.017 | 1.95 ± 0.075 | 1.83 ± 0.025 | 0.566 ± 0.013 |
| CUACUA | 0.522 ± 0.16 | 1.9 ± 0.046 | 1.78 ± 0.02 | 0.51 ± 0.059 |
| AUACUA | 0.515 ± 0.014 | 1.9061 ± 0.00059 | 1.774 ± 0.001 | 0.512 ± 0.018 |
| UUACUG | 0.491 ± 0.085 | 1.93 ± 0.039 | 1.67 ± 0.034 | 0.536 ± 0.13 |
| AUACUG | 0.294 ± 0.022 | 1.86 ± 0.077 | 1.43 ± 0.088 | 0.634 ± 0.025 |
| AUAGAA | 0.429 ± 0.005 | 1.87 ± 0.089 | 1.705 ± 0.0096 | 0.6216 ± 0.0039 |
| CUAGAA | 0.259 ± 0.2 | 1.92 ± 0.032 | 1.79 ± 0.042 | 0.359 ± 0.059 |
| GUAGAA | 0.2674 ± 0.0022 | 1.89 ± 0.03 | 1.723 ± 0.0046 | 0.342 ± 0.023 |
| UUAGAA | 0.092 ± 0.0099 | 1.89 ± 0.043 | 1.694 ± 0.0073 | 0.285 ± 0.021 |
| AUAGAC | 0.72 ± 0.12 | 1.88 ± 0.035 | 1.8 ± 0.018 | 0.755 ± 0.051 |
| CUAGAC | 0.273 ± 0.014 | 1.901 ± 0.0041 | 1.832 ± 0.011 | 0.149 ± 0.099 |
| GUAGAG | 0.148 ± 0.015 | 1.83 ± 0.073 | 1.31 ± 0.16 | 0.627 ± 0.068 |
| CUAGAU | -0.176 ± 0.0088 | 1.96 ± 0.051 | 1.79 ± 0.056 | 0.0723 ± 0.049 |
| AUAGCA | 0.241 ± 0.047 | 1.88 ± 0.033 | 1.78 ± 0.023 | 0.455 ± 0.093 |
| CUAGCA | 0.139 ± 0.058 | 1.93 ± 0.038 | 1.83 ± 0.04 | 0.177 ± 0.018 |
| GUAGCC | 0.609 ± 0.017 | 1.982 ± 0.014 | 1.83 ± 0.02 | 0.678 ± 0.059 |
| AUAGCG | -0.227 ± 0.035 | 1.87 ± 0.045 | 1.36 ± 0.057 | -0.0558 ± 0.023 |
| GUAGCU | -0.279 ± 0.094 | 1.98 ± 0.03 | 1.88 ± 0.063 | -0.197 ± 0.0065 |
| AUAGGA | 0.382 ± 0.011 | 1.9 ± 0.042 | 1.658 ± 0.015 | 0.529 ± 0.017 |
| CUAGGA | 0.7992 ± 0.0063 | 1.938 ± 0.0084 | 1.859 ± 0.018 | 0.697 ± 0.022 |

| Variant | FACS-Seq fitted mean (log10) [1] | normalized RNA/DNA level with ligand (log10) [2] | normalized RNA/DNA level without ligand (log10) [3] | FACS-Seq fitted mean (log10) [4] |
| --- | --- | --- | --- | --- |
| GUAGGC | 0.126 ± 0.003 | 1.87 ± 0.043 | 1.38 ± 0.043 | 0.611 ± 0.02 |
| UUAGGC | 0.15 ± 0.015 | 1.95 ± 0.05 | 1.887 ± 0.014 | 0.181 ± 0.0045 |
| AUAGGG | 0.023 ± 0.0025 | 1.807 ± 0.011 | 1.38 ± 0.0023 | 0.46 ± 0.053 |
| CUAGGG | 0.0497 ± 0.042 | 1.89 ± 0.035 | 1.53 ± 0.028 | 0.294 ± 0.039 |
| GUAGGG | 0.143 ± 0.034 | 1.86 ± 0.055 | 1.49 ± 0.037 | 0.5302 ± 0.0037 |
| UUAGGG | 0.351 ± 0.012 | 1.87 ± 0.037 | 1.69 ± 0.017 | 0.655 ± 0.028 |
| GUAGGU | 0.5146 ± 0.0047 | 1.95 ± 0.02 | 1.79 ± 0.034 | 0.578 ± 0.11 |
| AUAGUA | 0.52 ± 0.03 | 1.88 ± 0.034 | 1.751 ± 0.013 | 0.621 ± 0.066 |
| GUAGUA | 0.68 ± 0.083 | 1.899 ± 0.01 | 1.749 ± 0.014 | 0.725 ± 0.029 |
| CUAGUC | 0.639 ± 0.036 | 1.99 ± 0.074 | 1.91 ± 0.046 | 0.658 ± 0.03 |
| AUAGUG | 0.213 ± 0.046 | 1.82 ± 0.041 | 1.362 ± 0.012 | 0.348 ± 0.12 |
| CUAGUG | -0.00638 ± 0.00052 | 1.95 ± 0.1 | 1.85 ± 0.028 | 0.202 ± 0.017 |
| GUAGUG | 0.125 ± 0.029 | 1.94 ± 0.037 | 1.428 ± 0.0021 | 0.532 ± 0.051 |
| AUAUAA | 0.487 ± 0.056 | 1.883 ± 0.015 | 1.77 ± 0.027 | 0.6452 ± 0.0064 |
| AUAUAC | 0.568 ± 0.087 | 1.88 ± 0.019 | 1.8 ± 0.069 | 0.572 ± 0.028 |
| GUAUAC | 0.143 ± 0.058 | 1.94 ± 0.067 | 1.82 ± 0.067 | 0.251 ± 0.093 |
| UUAUAC | 0.396 ± 0.054 | 1.908 ± 0.015 | 1.827 ± 0.0035 | 0.632 ± 0.0036 |
| AUAUAG | 0.389 ± 0.046 | 1.83 ± 0.03 | 1.54 ± 0.057 | 0.611 ± 0.076 |
| GUAUAG | -0.0857 ± 0.034 | 1.854 ± 0.0081 | 1.44 ± 0.065 | 0.479 ± 0.013 |
| GUAUAU | -0.558 ± 0.056 | 1.84 ± 0.024 | 1.8 ± 0.041 | -0.474 ± 0.016 |
| AUAUCG | 0.607 ± 0.0094 | 1.86 ± 0.065 | 1.44 ± 0.045 | 0.756 ± 0.042 |
| GUAUCU | 0.165 ± 0.12 | 1.966 ± 0.0064 | 1.94 ± 0.025 | 0.536 ± 0.059 |
| AUAUGA | 0.609 ± 0.0086 | 1.924 ± 0.0023 | 1.7 ± 0.02 | 0.758 ± 0.018 |
| GUAUGA | 0.0955 ± 0.069 | 1.89 ± 0.049 | 1.64 ± 0.012 | 0.000695 ± 0.097 |
